According to US20190367631A1 (Regeneron, published 2019):
Where a chain is given by its changes, count along the chain named. Names and notes keep the numbering of the source.

T1: full length human MSR1 with a C-terminal Myc tag, on HEK293.Myc.hMSR1 cells (human, UniProt P21757 1-451)
T1 sequence (looked up): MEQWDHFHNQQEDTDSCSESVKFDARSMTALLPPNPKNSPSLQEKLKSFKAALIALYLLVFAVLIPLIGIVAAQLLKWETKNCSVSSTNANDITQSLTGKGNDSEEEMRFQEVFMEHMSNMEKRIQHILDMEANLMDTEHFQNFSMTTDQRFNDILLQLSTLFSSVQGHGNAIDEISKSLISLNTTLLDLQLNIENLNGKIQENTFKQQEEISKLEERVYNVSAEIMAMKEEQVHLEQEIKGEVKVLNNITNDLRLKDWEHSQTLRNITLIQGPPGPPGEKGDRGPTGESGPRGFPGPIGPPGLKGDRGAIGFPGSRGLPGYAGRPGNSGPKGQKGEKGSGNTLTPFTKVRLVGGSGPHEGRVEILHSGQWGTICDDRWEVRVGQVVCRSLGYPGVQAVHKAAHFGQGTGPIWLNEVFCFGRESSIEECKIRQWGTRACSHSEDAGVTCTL

T2: mouse MSR1 on RAW264.7 cells (mouse, UniProt P30204 1-458)
T2 construct: whole, on cells; also called MSR1 positive RAW264.7 cells
T2 sequence (looked up): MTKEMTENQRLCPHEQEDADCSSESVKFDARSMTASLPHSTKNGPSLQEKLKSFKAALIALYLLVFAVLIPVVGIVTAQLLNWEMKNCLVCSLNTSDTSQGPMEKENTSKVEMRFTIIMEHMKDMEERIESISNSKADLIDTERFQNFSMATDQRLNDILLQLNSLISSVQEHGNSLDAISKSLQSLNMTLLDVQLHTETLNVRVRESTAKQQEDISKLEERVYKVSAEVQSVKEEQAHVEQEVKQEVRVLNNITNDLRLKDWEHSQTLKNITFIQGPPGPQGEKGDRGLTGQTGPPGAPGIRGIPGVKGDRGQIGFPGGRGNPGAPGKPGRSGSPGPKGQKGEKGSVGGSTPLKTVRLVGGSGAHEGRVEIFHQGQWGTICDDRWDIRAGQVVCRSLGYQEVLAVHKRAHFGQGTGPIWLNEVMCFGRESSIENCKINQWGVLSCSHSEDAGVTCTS

T3: mouse MSR1 extracellular domain expressed with a N-terminal nonahistidine tag (His9-mMSR1); R&D Systems, Cat … (mouse, UniProt P30204 79-458)
T3 construct: extracellular domain; not shown: N-terminal nonahistidine tag
T3 sequence (looked up): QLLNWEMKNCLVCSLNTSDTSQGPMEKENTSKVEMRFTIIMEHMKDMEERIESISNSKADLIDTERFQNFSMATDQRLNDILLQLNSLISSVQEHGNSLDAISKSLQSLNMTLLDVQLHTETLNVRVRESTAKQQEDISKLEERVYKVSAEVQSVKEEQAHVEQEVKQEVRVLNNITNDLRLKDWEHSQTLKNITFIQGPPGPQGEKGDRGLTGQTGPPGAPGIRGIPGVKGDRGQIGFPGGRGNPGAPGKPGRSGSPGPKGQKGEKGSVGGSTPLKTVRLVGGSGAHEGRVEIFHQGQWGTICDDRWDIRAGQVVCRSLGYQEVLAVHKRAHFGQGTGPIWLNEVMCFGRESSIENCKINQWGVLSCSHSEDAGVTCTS

T4: human MSR1 extracellular domain expressed with a N-terminal nonahistidine tag (His9-hMSR1); R&D Systems, Cat … (human, UniProt P21757 77-451)
T4 construct: extracellular domain; Bought reagent; also called His-hMSR1; 9xHis-hMSR1
T4 sequence: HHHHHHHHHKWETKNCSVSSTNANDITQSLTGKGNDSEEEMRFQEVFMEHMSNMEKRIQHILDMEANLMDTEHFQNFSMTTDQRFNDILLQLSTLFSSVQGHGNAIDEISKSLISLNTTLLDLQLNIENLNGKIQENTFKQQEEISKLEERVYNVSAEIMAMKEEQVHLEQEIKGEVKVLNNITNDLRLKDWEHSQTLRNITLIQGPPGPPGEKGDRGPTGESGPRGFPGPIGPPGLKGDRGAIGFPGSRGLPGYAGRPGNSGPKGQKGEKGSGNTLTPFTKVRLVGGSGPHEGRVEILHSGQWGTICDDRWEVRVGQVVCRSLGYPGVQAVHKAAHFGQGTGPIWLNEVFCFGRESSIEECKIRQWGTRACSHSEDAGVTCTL

T5: human MSR1 extracellular domain expressed with a N-terminal nonahistidine tag (human, UniProt P21757 77-451)
T5 construct: extracellular domain; also called His9-hMSR1; His-hMSR1
T5 sequence: T4 sequence

B1: H1H27760P2-N297Q (antibody, human IgG1, V domains shown)
VH: EVQLVESGGGLVQPGRSLRLSCAASGFTFDAYAMHWVRQAPGKGLEWVSGISWNSGSIGYADSVKGRFTISRDNAKNSLYLQMNSLREEDTALYYCAKDKILELYYYGMDVWGQGTTVTVSS
VL: not shown
notes: human IgG1 Fc with N297Q; also called H1H27760P-N297Q
B2: H1H27732P-N297Q (antibody, human IgG1, V domains shown)
VH: QLQLQESGPGLVKPSETLSLTCTVSGGSISSSTYYWGWIRQPPGKGLEWIGSFYYSGSTYYNPSLKSRVTISVGTSKNQFSLKLSSVTAADTAVYFCARGGLLGRPFVIWGQGTMVTVSS
VL: DIQMTQSPSSLSASVGDRVTITCRASQGIRNDLGWYQQKPGKAPKRLIYAASSLQSGVPSRFSGSGSGTEFTLTISSLQPEDFATYYCLQHNSYPLTFGGGTKVEIKR
notes: human IgG1 Fc with N297Q
B3: H2aM21232N (antibody, V domains shown)
VH: QVQLQESGPGLVKPSETLSLTCTVSGGSISSYYWSWIRQPPGKGLEWIGYIYYSGSANYNPSLKSRVTISVDTSKNQFSLKLSSVTAADTAVYYCVRDRDLLLDHWGQGTLVTVSS
VL: not shown
notes: Human variable domains with mouse IgG2a Fc
B4: H2aM25690N (antibody, V domains shown)
VH: EVQLLESGGGLVQPGGSLRLSCAASGFTFSNYAMTWVRQAPGTGLEWVSAISGRGSNTYYTDSVKGRFTISRDNSKNMLYLQMNSLRAEDTASYYCAKDRFTTVGNWFDPWGQGTLVTVSS
VL: DIQMTQSPSSLSASVGDRVTITCRASQSISSYLNWYQQKPGKAPKLLIYAASSLQNGVPSRFSGSGSGTDFTLTISSLQPEDFATYYCQQSYSSLPITFGQGTRLDIKR
notes: Human variable domains with mouse IgG2a Fc; tied by the numerical identifier
B5: H2aM25685N (antibody, V domains shown)
VH: QVQLVQSGAEVREPGASVKLSCKVSGYTLTELSIHWVRQAPGKGLEWMGGFDPEEGETVYAQKFRGRVTLTEDISPDTAYMELSSLTSEDTAVYYCATPRYCNNGICYDYWGQGTLITVSS
VL: not shown
notes: as for B4
B6: H1H21234N-N297Q-LP1 (antibody, human IgG1, V domains shown)
VH: QVQLQESGPGLVKPSETLSLTCTVTGGSISRNYWSWIRQPPGKGLEWIGYIYYSGSIDYNPSLKSRVTISVDTSKNQFSLKLSSMTAADTAVYYCARDRWNWKYGMDVWGQGTTVIVSS
VL: EIVLTQSPGTLSLSPGERATLSCRASQTVRNNYLAWYHQKPGQAPRLLIYGASSRATGIPDRFSGSGSGTDFTLTISRLEPEDFTVYYCHQYGNSPWTFGQGTKMEIKR
modifications: LXR agonist linker-payload LP1 clicked to azido-PEG3-amine on Q295 and Q297 (EU) of the heavy chain constant region
notes: antibody-drug conjugate; human IgG1 Fc with N297Q (EU); also called H1H21234N-LP1
B7: H1H27766P-N297Q (antibody, human IgG1, V domains shown)
VH: EVQLVESGGGLVQPGGSLRLSCAASGFTFSSFAMSWVRQAPGKELEWVSSISGRGGSTYYADSVRGRFTISRDNSKITLYLQMNSLRAEDTAVYYCAKDIVFRYTSSAYWYFDLWGRGTLVTVSS
VL: not shown
notes: human IgG1 Fc with N297Q (EU); also called H1H27766P2-N297Q
B8: H1H27731P-N297Q-LP1 (antibody, V domains shown)
VH: QLQLQESGPGLVKPSETLSLTCTVSGGSISRISYYWGWIRQPPGKGLEWIGSIYDSGSTYYNPSLKSRVTISIDTSKNQFSLKLSSVTAADTAVYYCVRYSSSSAFAFDYWGQGTLVTVSS
VL: DIQMTQSPSSVSASVGDRVTITCRASQGISSWLAWYQQKPGKAPKLLIYAASSLQSGVPSRFSGSGSGTDFTLTISSLQPEDFATYYCQQANSFPFTFGPGTKVDIKR
modifications: LXR agonist linker-payload LP1 clicked to azido-PEG3-amine on Q295 and Q297 (EU) of the heavy chain constant region
notes: antibody-drug conjugate; human IgG1 Fc with N297Q (EU); also called H1H27731P-LP1
B9: H1H27754P-N297Q (antibody, human IgG1, V domains shown)
VH: EVQLVESGGGLVQPGGSLRLSCAASGFTFRTYAMTWVRQAPGKGLDWVSAITGDGGNTYYADSVKGRFTISRDNSKNTLYLQMNSLRAEDTAIYYCAKDQRFSFALYYFDYWGQGTLVTVSS
VL: B8 VL with K42N, S52F, S93N, F96W, P100Q, D105E
notes: human IgG1 Fc with N297Q (EU)
B10: H1H27754P-N297Q-LP1 (antibody, human IgG1, V domains shown)
VH: B9 VH
VL: B8 VL with K42N, S52F, S93N, F96W, P100Q, D105E
modifications: LXR agonist linker-payload LP1 clicked to azido-PEG3-amine on Q295 and Q297 (EU) of the heavy chain constant region
notes: antibody-drug conjugate; human IgG1 Fc with N297Q (EU); also called H1H27754P-LP1
B11: H1H27732P-N297Q-LP1 (antibody, human IgG1, V domains shown)
VH: B2 VH
VL: B2 VL
modifications: LXR agonist linker-payload LP1 clicked to azido-PEG3-amine on Q295 and Q297 (EU) of the heavy chain constant region
notes: antibody-drug conjugate; human IgG1 Fc with N297Q (EU); also called H1H27732P-LP1
B12: H1H27778P2-N297Q (antibody, human IgG1, V domains shown)
VH: EVQLVESGGGLEQPGGSLRLSCAASGFTFSSYAMSWVRQAPGKGLEWVSVISGSGGYTNYADSVKGRFTISRDNSKNTLYLQMNRLRAEDSAVYYCARHNWNYDYYGMDVWGQGTTVTVSS
VL: not shown
notes: Human IgG1 Fc with N297Q; also called H1H27778P-N297Q
B13: H1H27771P2-N297Q (antibody, V domains shown)
VH: EVQLVESGGGLVQPGGSLRLSCAASGFTFSSYGMNWVRQAPGKGLEWVSVISGSGGSTYYADSVKGRFTISRDNSKNTLYLQMNSLRAEDTAVYYCAKDRWTYYYDSSGSPFDYWGQGTLVTVSS
VL: not shown
notes: Human IgG1 Fc with N297Q; also called H1H27771P-N297Q
B14: H1H27732P-N297Q (antibody, human IgG1, V domains shown)
VH: B2 VH
VL: B2 VL
notes: human IgG1 Fc with N297Q (EU)

molecular target: T1, full length human MSR1 with a …; experiment: cell-based or functional assay

Row | % Inhibition of Dil-Acetylated LDL uptake [%] | % Inhibition of Dil-Oxidized LDL uptake [%] | IC50 of Dil-Acetylated LDL uptake inhibition [nM] | IC50 of Dil-Oxidized LDL uptake inhibition [nM] | Binder
1 | 46 | 70 | 2.6 | 4.9 | B1
2 | 62 | 86 |  |  | B2

molecular target: T2, mouse MSR1 on RAW264.7 cells; experiment: flow cytometry, RAW264.7 cells
Experimental: To block binding to Fc receptors, RAW264.7 cells were incubated for 30 minutes at 4° C. with 500 pg/mL mouse IgG (Jackson ImmunoResearch, Cat #015-000-003) diluted in staining buffer, while B16F10.9 cells remained in staining buffer. […] The signal to noise (S/N) was determined by calculating the ratio of the anti-MSR1 antibodies or the control antibodies MFI to the unstained sample MFI (Table 11).

Row | MFI [MFI] | S/N (MFI over unstained MFI) | Binder
3 | 3430 | 1 | B1
4 | 3420 | 1 | B2

molecular target: T3, mouse MSR1 extracellular domain …; experiment: BLI Octet, 25 C, antibody captured

Row | binding result | Binder
5 | no binding (tested: 100 nM) | B3
6 | no binding (tested: 100 nM) | B4
7 | no binding (tested: 100 nM) | B5

molecular target: T4, human MSR1 extracellular domain …; experiment: SPR Biacore T200, 25 C, antibody captured by anti-human Fc, His9-hMSR1 injected;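 further: running buffer HBS-ET pH 7.4, rates from sensorgrams fitted to a 1:1 model including mass transport limitation, KD and half-life derived from the kinetic constants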
Experimental: (§1) All binding studies were performed in 10 mM HEPES, 300 mM NaCl, 3 mM EDTA, and 0.05% v/v Surfactant Tween-20, pH 7.4 (HBS-ET) running buffer at 25° C.
(§2) The association rate (kₐ) and dissociation rate (kd) were determined by fitting the real-time binding sensorgrams to a 1:1 binding model with mass transport limitation using Scrubber 2.0c curve-fitting software. Binding dissociation equilibrium constant (KD) and dissociative half-life (t½) were calculated from the kinetic rates as:

Row | kon [M⁻¹ s⁻¹] | Binder
8 | 490000 | B6
9 | 172000 | B7
10 | 128000 | B8
11 | 200000 | B9
12 | 177000 | B10
13 | 150000 | B11

molecular target: T5, human MSR1 extracellular domain …; experiment: competition ELISA, plate-coated His9-hMSR1; 100 nM antibody, competitor ligand Ac-LDL
Experimental: (§3) Buffer alone was also added to wells on each coat. […] This assay was conducted in four different assay runs.
(§4) Data analysis was performed using a sigmoidal dose-response model within Prism™ software (GraphPad).

Row | % Blocking [%] | Binder
14 | -40 | B12

molecular target: T5, human MSR1 extracellular domain …; experiment: competition ELISA, plate-coated His9-hMSR1; 300 nM antibody, competitor ligand biot-AGE-BSA
Experimental: as §3, §4

Row | % Blocking [%] | Binder
15 | -1 | B13
16 | -8 | B12

molecular target: T4, human MSR1 extracellular domain …; experiment: SPR Biacore T200, 25 C, antibody captured by anti-human Fc, His9-hMSR1 injected; no dissociation seen, kd fixed at 1.00E-05;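 on kon: running buffer HBS-ET pH 7.4, rates from sensorgrams fitted to a 1:1 model including mass transport limitation, KD and half-life derived from the kinetic constants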
Experimental: as §1, §2

Row | Kd [nM] | koff [s⁻¹] | t½ [h] | Binder
17 | ≤ 0.0204 | ≤ 1e-05 | ≥ 19.3 | B6
18 | ≤ 0.0583 | ≤ 1e-05 | ≥ 19.3 | B7
19 | ≤ 0.078 | ≤ 1e-05 | ≥ 19.3 | B8
20 | ≤ 0.0499 | ≤ 1e-05 | ≥ 19.3 | B9
21 | ≤ 0.0564 | ≤ 1e-05 | ≥ 19.3 | B10
22 | ≤ 0.066 | ≤ 1e-05 | ≥ 19.3 | B11
23 | ≤ 0.045 |  | ≥ 19.3 | B14
